Paper PMC6527014

Assays:
[1] = target: SCM on the surface of S. canis strain G361 (Streptococcus canis (endogenous in strain G361)); assay: radioligand binding; iodinated protein (chloramine T) incubated with whole bacteria; percentage binding of totally used iodinated protein
[2] = target: SCM on the surface of S. canis strain G361 (Streptococcus canis (endogenous in strain G361)); assay: radioligand binding; inhibition: S. canis G361 with iodinated full-length SCM after pre-incubation with non-iodinated SCM, N-225 or C-226 (5 µg in the text, 1 µM in the legend)
[3] = target: recombinant SCM (Streptococcus canis M protein), mature wild type (Streptococcus canis (strain G361)); assay: SPR

Substance: recombinant SCM (Streptococcus canis M protein), mature wild type (natural protein)
- percent of the iodinated protein bound [1]: 24.1%
- percent of iodinated SCM bound to G361 with the unlabelled competitor [2]: 4.4%

Substance: recombinant SCM (Streptococcus canis M protein), mature wild type
- Kd ([3]; natural protein): 4120 nM

Substance: SCM fragment N-225 (domain or fragment)
- percent of iodinated SCM bound to G361 with the unlabelled competitor [2]: 6.8%

Substance: SCM fragment N-225
- Kd ([3]; domain or fragment): 58.5 nM
